In patent US20040082509:

System: T1, L-JBD20 peptide (20 amino acid minimal JNK-inhibitory sequence of JIP-IB1)
T1 sequence: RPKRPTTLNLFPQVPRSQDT

pKC
pKC kinase activity (substrate histone) at the tested peptide concentration: 500 µM of the JBD20 peptides did not interfere with the activity of 6 particular kinases: ERK2, p38, pKC, p34, caK and pKA

pKA
pKA kinase activity (substrate histone) at the tested peptide concentration: 500 µM of the JBD20 peptides did not interfere with the activity of 6 particular kinases: ERK2, p38, pKC, p34, caK and pKA

caK
caK kinase activity (substrate caseine) at the tested peptide concentration: 500 µM of the JBD20 peptides did not interfere with the activity of 6 particular kinases: ERK2, p38, pKC, p34, caK and pKA

p34
p34 kinase activity (substrate histone) at the tested peptide concentration: 500 µM of the JBD20 peptides did not interfere with the activity of 6 particular kinases: ERK2, p38, pKC, p34, caK and pKA

p38
p38 kinase activity (substrate ATF2) at the tested peptide concentration: 500 µM of the JBD20 peptides did not interfere with the activity of 6 particular kinases: ERK2, p38, pKC, p34, caK and pKA
